# Target: recombinant human prolidase with N-terminal His-Tag (human) (UniProt P12955)
# Experiment: SEC; Superdex 200 gel filtration in 150 mM NaCl, 25 mM Tris-HCl pH 7.5, 1 mM TCEP-HCl; mass by a commercial standard (Bio-Rad)
substance,measurement,value
recombinant human prolidase with N-terminal His-Tag (from UniProt P12955 1-493) (enzyme),stoichiometry N,2

# — article PMC9600000
